Experimental data: US20250289893A1 (OXFORD UNIVERSITY INNOVATION, published 2025)

What was measured:
[1] = biological target: T1, chimeric CD1a pool B protein [human CD1a lipid binding domain, mouse CD1d Ig domain] (human; mouse, UniProt P06126 18-201; P11609 205-297, limits assumed); experiment: ELISA, 0.0316 µg/ml antibody
Method: (§1) CD1a-specific antibodies were identified by ELISA. […] 20 μl/well of peroxidase-conjugated goat anti-species IgG Fc-specific F(ab′)2 fragment (Jackson ImmunoResearch), diluted 1:5000 in block buffer was added and incubated at room temperature for 1 hour, followed by washing with wash buffer.
(§2) The antibodies were titrated through a dilution series and compared to a control rabbit IgG antibody. […] Data shown for purified antibodies.

[2] = biological target: T2, Cynomolgus monkey CD1a expressed on HEK-293 cells (Cynomolgus monkey, UniProt A0A2K5VQ68 17-326); experiment: flow cytometry, HEK-293 cells, 1 µg/ml antibody
T2 sequence (A0A2K5VQ68 entry or part of it): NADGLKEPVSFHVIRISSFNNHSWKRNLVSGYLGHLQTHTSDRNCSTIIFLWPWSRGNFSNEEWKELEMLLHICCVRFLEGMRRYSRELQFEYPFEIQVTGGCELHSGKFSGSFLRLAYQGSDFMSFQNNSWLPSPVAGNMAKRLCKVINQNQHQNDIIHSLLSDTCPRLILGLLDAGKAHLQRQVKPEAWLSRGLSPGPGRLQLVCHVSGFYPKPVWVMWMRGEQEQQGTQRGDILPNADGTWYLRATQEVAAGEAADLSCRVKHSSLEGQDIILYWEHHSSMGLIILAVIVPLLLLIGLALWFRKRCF
Method: (§3) Binding to proteins expressed on HEK, C1R and MOLT4 cell lines was assessed. […] The C1R-CD1a, C1R-empty vector and MOLT4 cell lines were washed in 1×PBS on the day required. All cell lines were counted and resuspended in 1×PBS and then stained for 30 minutes at 37° C. using the DiI or DiO cellular stains (Invitrogen). Cells were washed with flow cytometry buffer (1% bovine serum albumin, 2 mM EDTA and 0.1% sodium azide in PBS) before mixing 2 DiI-stained and DiO-stained populations together. The cells (20 μl/well) were then added to dilutions of antibody sample (B cell culture supernatant, TAP supernatant, clone supernatant, purified antibody solution) (20 μl/well) and incubated for 1 hour at 4° C. in a flow cytometry assay plate, before being washed with flow cytometry buffer. 10 μl/well of Alexafluor647-conjugated goat anti-species IgG Fc-specific F(ab′)2 fragment (Jackson ImmunoResearch), diluted 1:2500 in flow cytometry buffer, was added and incubated at 4° C. for 30 minutes, followed by washing with wash buffer. The fluorescence intensity was then measured on an iQue screener PLUS.
(§4) Binding was quantified as fold change in fluorescence intensity geomean over background assessed by flow cytometry.

[3] = biological target: T3, human CD1a expressed on cells (human, UniProt P06126 17-327; P61769 21-119); experiment: flow cytometry, C1R cells, 1 µg/ml antibody
T3 construct: also called HEK - CD1a; C1R - CD1a
Method: as §3, §4

[4] = biological target: T1, chimeric CD1a pool B protein [human …; experiment: ELISA, 0.316 µg/ml antibody
Method: as §1, §2

[5] = biological target: T4, Cynomolgus monkey CD1a protein (Cynomolgus monkey); experiment: ELISA, 10 µg/ml antibody
T4 chain: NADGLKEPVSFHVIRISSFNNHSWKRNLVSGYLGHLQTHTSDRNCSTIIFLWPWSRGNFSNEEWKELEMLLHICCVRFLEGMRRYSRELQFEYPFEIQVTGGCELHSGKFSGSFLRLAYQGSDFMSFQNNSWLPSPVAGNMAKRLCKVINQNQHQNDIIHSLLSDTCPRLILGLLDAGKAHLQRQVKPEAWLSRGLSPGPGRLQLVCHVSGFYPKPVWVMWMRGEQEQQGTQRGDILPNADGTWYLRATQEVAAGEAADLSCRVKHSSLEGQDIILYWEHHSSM

[6] = biological target: T3, human CD1a expressed on cells; experiment: flow cytometry, C1R cells, 31.6 µg/ml antibody
Method: as §3, §4

[7] = biological target: T5, human CD1a protein (pool B) (human, UniProt P06126 18-295, limits assumed); experiment: ELISA, 0.316 µg/ml antibody
T5 construct: Recombinant protein of the ELISA (coated) and the Biacore T200 titration; whole entry named; also called human CD1a pool B; full length CD1a
T5 sequence (P06126 18-295 limits assumed): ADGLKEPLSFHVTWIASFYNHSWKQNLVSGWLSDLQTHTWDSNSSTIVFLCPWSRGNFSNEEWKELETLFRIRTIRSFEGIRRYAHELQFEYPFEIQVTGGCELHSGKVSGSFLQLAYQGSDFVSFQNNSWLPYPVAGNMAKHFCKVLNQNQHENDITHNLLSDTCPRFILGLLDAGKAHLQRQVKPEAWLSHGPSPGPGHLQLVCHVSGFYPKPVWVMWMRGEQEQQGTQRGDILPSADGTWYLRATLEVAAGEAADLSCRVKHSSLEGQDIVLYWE
Method: as §1
(§5) The antibodies were titrated through a dilution series and compared to a control rabbit IgG antibody.

[8] = biological target: T3, human CD1a expressed on cells; experiment: flow cytometry, MOLT4 cells, 0.316 µg/ml antibody
Method: (§6) CD1a-specific antibodies were identified by flow cytometry. Binding to proteins expressed on HEK, C1R and MOLT4 cell lines was assessed. […] The C1R-CD1a, C1R-empty vector and MOLT4 cell lines were washed in 1×PBS on the day required. All cell lines were counted and resuspended in 1×PBS and then stained for 30 minutes at 37° C. using the DiI or DiO cellular stains (Invitrogen). Cells were washed with flow cytometry buffer (1% bovine serum albumin, 2 mM EDTA and 0.1% sodium azide in PBS) before mixing 2 DiI-stained and DiO-stained populations together. The cells (20 μl/well) were then added to dilutions of antibody sample (B cell culture supernatant, TAP supernatant, clone supernatant, purified antibody solution) (20 μl/well) and incubated for 1 hour at 4° C. in a flow cytometry assay plate, before being washed with flow cytometry buffer. 10 μl/well of Alexafluor647-conjugated goat anti-species IgG Fc-specific F(ab′)2 fragment (Jackson ImmunoResearch), diluted 1:2500 in flow cytometry buffer, was added and incubated at 4° C. for 30 minutes, followed by washing with wash buffer. The fluorescence intensity was then measured on an iQue screener PLUS.
as §4

[9] = biological target: T2, Cynomolgus monkey CD1a expressed on …; experiment: flow cytometry, HEK-293 cells, 0.01 µg/ml antibody
Method: as §3, §4

[10] = biological target: T5, human CD1a protein (pool B); experiment: ELISA, 0.1 µg/ml antibody
Method: as §1, §5

[11] = biological target: Chinese variant CD1a protein (human) (UniProt P06126); experiment: ELISA, 0.01 µg/ml antibody
Sequence of Chinese variant CD1a protein (human) (P06126 18-295, change not shown): as the sequence (P06126 18-295 limits assumed) above

[12] = biological target: T2, Cynomolgus monkey CD1a expressed on …; experiment: flow cytometry, HEK-293 cells, 0.1 µg/ml antibody
Method: as §3, §4

[13] = biological target: T4, Cynomolgus monkey CD1a protein; experiment: ELISA, 1 µg/ml antibody
[14] = biological target: T6, human CD1c expressed on HEK-293 cells (human, UniProt P29017 18-333; P61769 21-119); experiment: flow cytometry, HEK-293 cells
T6 construct: also called HEK - CD1c
Method: as §3
(§7) HEK-293 cells were transiently transfected with human CD1a, CD1b, CD1c or CD1d and co-transfected with human β2M.

[15] = biological target: T7, human CD1d expressed on HEK-293 cells (human, UniProt P15813 20-335; P61769 21-119); experiment: flow cytometry, HEK-293 cells
T7 construct: also called HEK - CD1d
Method: as §3, §7

[16] = biological target: T8, human CD1b expressed on HEK-293 cells (human, UniProt P29016 18-333; P61769 21-119); experiment: flow cytometry, HEK-293 cells
T8 construct: also called HEK - CD1b
Method: as §3, §7

[17] = biological target: T3, human CD1a expressed on cells; experiment: flow cytometry, C1R cells, 10 µg/ml antibody
Method: as §3, §4

[18] = biological target: T6, human CD1c expressed on HEK-293 cells; experiment: flow cytometry, HEK-293 cells, 100 µg/ml antibody
Method: as §3, §7

[19] = biological target: T7, human CD1d expressed on HEK-293 cells; experiment: flow cytometry, HEK-293 cells, 100 µg/ml antibody
Method: as §3, §7

[20] = biological target: T3, human CD1a expressed on cells; experiment: flow cytometry, HEK-293 cells, 100 µg/ml antibody
Method: as §3, §7

[21] = biological target: T3, human CD1a expressed on cells; experiment: flow cytometry, C1R cells, 3.16 µg/ml antibody
Method: as §3, §4

[22] = biological target: T6, human CD1c expressed on HEK-293 cells; experiment: flow cytometry, HEK-293 cells, 3.16 µg/ml antibody
Method: as §3, §7

[23] = biological target: T7, human CD1d expressed on HEK-293 cells; experiment: flow cytometry, HEK-293 cells, 3.16 µg/ml antibody
Method: as §3, §7

[24] = biological target: T8, human CD1b expressed on HEK-293 cells; experiment: flow cytometry, HEK-293 cells, 3.16 µg/ml antibody
Method: as §3, §7

[25] = biological target: T3, human CD1a expressed on cells; experiment: flow cytometry, HEK-293 cells, 3.16 µg/ml antibody
Method: as §3, §7

[26] = biological target: T3, human CD1a expressed on cells; experiment: flow cytometry, MOLT4 cells, 100 µg/ml antibody
Method: as §6, §4

T1 sequence (P06126 other isoform, or with tags, fused parts or gaps mutant limits assumed): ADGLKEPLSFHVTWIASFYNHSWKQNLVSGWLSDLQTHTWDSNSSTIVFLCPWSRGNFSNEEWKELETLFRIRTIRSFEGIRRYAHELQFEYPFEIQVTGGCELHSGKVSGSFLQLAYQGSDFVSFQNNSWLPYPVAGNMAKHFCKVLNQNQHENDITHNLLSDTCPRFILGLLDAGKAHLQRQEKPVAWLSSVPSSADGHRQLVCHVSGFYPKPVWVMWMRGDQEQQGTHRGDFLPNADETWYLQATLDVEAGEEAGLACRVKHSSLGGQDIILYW

B1: 116 (VR12117) (antibody, V domains shown)
VH: QSVEESGGRLVTPGTPLTLTCTVSGFSLSNYAMSWVRQAPGKGLEWIGIIYTTGFTYYASWVKGRFTISKTSTTVDLKITSPTTEDTATYFCARGLATYVSPPTRLDLWGQGTLVTVSS
VL: AQVLTQTPSPVSAAVGGTVTINCQASQSIYNSKNLAWYQQKPGQPPKLLIYSASTLASGVPSRFKGSGSGTQFTLTISDLECDDAATYYCQGEFSCSSVDCATFGGGTEVVVK
notes: also called OX116
B1 was tested, and the “Optical Density (OD)” value [1] was 1.13 OD, the “Fluorescence Intensity Geomean (normalized to background)” value [2] was 0.8 fold over background and the “Fluorescence Intensity Geomean (normalized to background)” value [3] was 28.7 fold over background. For the same binder, the “Optical Density (OD)” value [4] was 1.32 OD, the “Optical Density (OD)” value [5] was 0.16 OD and the “Fluorescence Intensity Geomean (normalized to background)” value [6] was 13.7 fold over background. For the same binder, the “Optical Density (OD)” value [7] was 1.15 OD, the “Fluorescence Intensity Geomean (normalized to background)” value [8] was 29.6 fold over background and the “Fluorescence Intensity Geomean (normalized to background)” value [9] was 1 fold over background. For the same binder, the “Optical Density (OD)” value [10] was 1.07 OD, the Optical Density (OD) [11] was 1.47 OD and the “Fluorescence Intensity Geomean (normalized to background)” value [12] was 1 fold over background. The “Optical Density (OD)” value [13] was 0.14 OD, the binding result [14] was “no binding (tested: 100 µg/ml (highest tested))” and the binding result [15] was “no binding (tested: 100 µg/ml (highest tested))”. For the same binder, the binding result [16] was “no binding (tested: 100 µg/ml (highest tested))”, the “Fluorescence Intensity Geomean (normalized to background)” value [17] was 16.9 fold over background and the “Fluorescence Intensity Geomean (normalized to background)” value [18] was 1 fold over background. The “Fluorescence Intensity Geomean (normalized to background)” value [19] was 1 fold over background, the “Fluorescence Intensity Geomean (normalized to background)” value [20] was 3.9 fold over background and the “Fluorescence Intensity Geomean (normalized to background)” value [21] was 24 fold over background. The “Fluorescence Intensity Geomean (normalized to background)” value [22] was 1.1 fold over background, the “Fluorescence Intensity Geomean (normalized to background)” value [23] was 1.1 fold over background and the “Fluorescence Intensity Geomean (normalized to background)” value [24] was 1 fold over background. For the same binder, the “Fluorescence Intensity Geomean (normalized to background)” value [25] was 21.9 fold over background and the “Fluorescence Intensity Geomean (normalized to background)” value [26] was 3.7 fold over background.
